{
  "source": "patent US20210292393A1",
  "about": "(published 2021)",
  "binders": {"B1": {"name": "antibody 440 (antibody, V domains shown)", "VH": "EVQLLESGGGLVQPGGSLRLSCAASGFTFSSYAMSWVRQAPGKGLEWVSAISGSGVNTYHADSVKGRFTISRDNSRNTLYLQMSSLTAEDTAAYYCAKDFEAASGAYYYYGMDVWGQGTTVTVSS", "VL": "SYELTQPPSVSVSPGQTARITCSGDALPDQYAYWYQQKPGQAPVVVIYKDRERPSGIPERFSGSNSGTTVTLTISGVQAEDEADYYCQSADSSATYVVFGGGTKLTVL"}, "B2": {"name": "antibody 441 (antibody, V domains shown)", "VH": "EVQLVESGGGVVRPGGSLRLSCAASGFTFGDYGMSWVRQAPGKGLEWVSGINWNGGSTGYADSVKGRFTISRDNAKNSLYLQMNSLRAEDTALYYCASDLVRGVIGFDYWGQGTLVTVSS", "VL": "B1 VL with D29K, V45L, R51S, N65S, A94G, T95I, Y96T, V97G"}, "B3": {"name": "antibody 448 (antibody, V domains shown)", "VH": "QVQLVQSGAEVKKPGASVKVSCKASGYTFTSYGISWVRQAPGQGLEWMGWISAYNGNTNYAQKLQGRVTMTTDTSTSTAYMELRSLRSDDTAVYYCAIELLEGFYYYYGMDVWGQGTTVTVSS", "VL": "SYELTQPPSVSVSPGQTARITCSGDALPKQYAYWYQQKPGQAPVLVIYKDSERPSGIPERFSGSSSGTTVTLTISGVQAEDEADYYCQSADSSGTYPYVVFGGGTKLTVL"}, "B4": {"name": "antibody 449 (antibody, V domains shown)", "VH": "not shown", "VL": "QSALTQPASVSGSPGQSITISCTGTSSDVGGYNYVSWYQQHPGKAPKLMIYEVSNRPSGVSNRFSGSKSGNTASLTISGLQAEDEADYYCSSYTSSSTVVFGGGTKLTVL"}, "B5": {"name": "antibody 451 (antibody, V domains shown)", "VH": "EVQLVESGGGLVQPGGSLRLSCAASGFTFSTYWMSWVRQAPGKGLEWVANIKQDGSEKYYVDSVKGRFTISRDNAKNSLYLQMNSLRAEDTAVYYCARLGGSSWYFDYWGQGTLVTVSS", "VL": "not shown"}, "B6": {"name": "antibody 453 (antibody, V domains shown)", "VH": "QVQLVESGGGVVQPGRSLRLSCAASGFTFSSYAMYWVRQAPGKGLEWVAVISYDGSNKYYADSVKGRFTISRDNSKNTLYLQMNSLRAEDTAVYYCARDRPHYYGSGRKILNLYGMDVWGQGTTVTVSS", "VL": "DIQLTQSPSFLSASVGDRVTITCRASQGISSYLAWYQQKPGKAPKLLIYAASTLQSGVPSSFSGSGSGTEFTLTISSLQPEDFATYYCQQLNSYPPFTFGPGTKVDIK"}, "B7": {"name": "antibody 455 (antibody, V domains shown)", "VH": "QVQLVQSGAEVKKPGSSVKVSCKASGGTFSSYAISWVRQAPGQGLEWMGRIIPILGIANYAQKFQGRVTITADKSTSTAYMELSSLRSEDTAVYYCARDSIVVPAAIISGYYYYGMDVWGQGTTVTVSS", "VL": "QSVLTQPPSVSAAPGQKVTISCSGSSSNIGNNYVSWYQQLPGTAPKLLIYDNNKRPSGIPDRFSGSKSGTSATLGITGLQTGDEADYYCGTWDSSLSAGRVFGGGTKLTVL"}, "B8": {"name": "antibody 458 (antibody, V domains shown)", "VH": "QVQLVESGGGVVQPGRSLRLSCAASEFTFATYAMHWVRQAPGKGLEWVALISQDGSNKHYADSVKGRFTISRDNSKNTLYLQMNSLRAEGTAIYYCARESLEAAGPPFDYWGQGTLVTVSS", "VL": "SYELTQPPSVSVSPGQTATIICSGDKLGEKYASWYQQKPGQSPALVIYQDRKRPSGIPERFSGSNSGNTATLTISGTQAMDEADYYCQAWDSSNSVVFGGGTKLTVP"}, "B9": {"name": "antibody 461 (antibody, V domains shown)", "VH": "EVQLVESGGGLVKPGGSLRLSCAASGFTFSSYSMNWVRQAPGKGLEWVSSISSSSSYIYYADSVKGRFTISRDNAKNSLYLQMNSLRAEDTAVYYCASNPAAGQEAYYYYGMDVWGQGTTVTVSS", "VL": "not shown"}, "B10": {"name": "antibody 462 (antibody, V domains shown)", "VH": "QVQLVESGGGVVQPGRSLRLSCAASGFTFSSYGMHWVRQAPGKGLEWVAVIWYDGNNKYYADSVKGRFTISRDNSKNTLYLQMNSLRAEDTAVYYCAKDPTWFGELPSYYYYGMDVWGQGTTVTVSS", "VL": "not shown"}, "B11": {"name": "antibody 465 (antibody, V domains shown)", "VH": "QITLKESGPTLVKPTQTLTLTCTFSGFSLSTSGVGVGWIRQPPGKALEWLALIYWDDDKHYSPSLKSRLTITKDTSKNQVVLTMTNMDPVDTATYYCAHMYYDILSGYYYGMDVWGQGTTVTVSS", "VL": "not shown"}, "B12": {"name": "antibody 468 (antibody, V domains shown)", "VH": "QVQLVESGGGVVQPGRSLRLSCAASGFTFSIYAMHWVRQAPGKGLEWVAVISYDGSNKYYADSVKGRFTISRDNSKNTLYLQMNSLRAEDTAVYYCAGSLPAGSYYYYYGMDVWGQGTTVTVSS", "VL": "B1 VL with D29K, V45L, R51S, N65S, S92N, A94G, V98L"}, "B13": {"name": "antibody 469 (antibody, V domains shown)", "VH": "QVQLVESGGGVVQPGRSLRLSCAASGFTFSSYGMHWVRQAPGKGLEWVAVIWYDGSNKYYADSVKGRFTISRDNSKNTLYLQMNSLRAEDTAVYYCARDLLSVGWSFDYWGQGTLVTVSS", "VL": "not shown"}, "B14": {"name": "antibody 481 (antibody, V domains shown)", "VH": "EVQLVESGGGLIQPGGSLRLSCAASGFTVSSNYMSWVRQAPGKGLEWVSVIYSGGSTFYADSVKGRFTISRDNSKNTLYLQMNSLRAEDTAVYYCAREVAGTYDYWGQGTLVTVSS", "VL": "DIQMTQSPSSVSASVGDRVTITCRASQGISSWLAWYQQKPGKAPKLLIYAASSLQSGVPSRFSGSGSGTDFTLTISSLQPEDFATYYCQQANSFPGGTFGPGTKVDIKR"}, "B15": {"name": "antibody 489 (antibody, V domains shown)", "VH": "QVQLVESGGGVVQPGRSLRLSCAASGFTFSSYAMHWVRQAPGKGLEWVAVISYDGSNKYYADSVKGRFTISRDNSKNTLYLQMNSLRAEDTAVYYCARAGSGNYYNWFDPWGQGTLVTVSS", "VL": "not shown"}, "B16": {"name": "antibody 500 (antibody, V domains shown)", "VH": "QVQLVESGGGVVQPGRSLRLSCAASGFTFSSYAMHWVRQAPGKGLEWVAVISYDGSNKYYADSVKGRFTISRDNSKNTLYLQMNSLRAEDTAVYYCAKSRDGYKLFDIWGQGTMVTVSS", "VL": "not shown", "notes": "also called mAb 500"}, "B17": {"name": "antibody 501 (antibody, V domains shown)", "VH": "QVQLVQSGAEVKKPGASVKVSCKASGYTFTSYYVHWVRQAPGQSLEWMGVISPSTGSTTYAQNFQGRVTMTRDTSTTTVYMELSSLRSEDTAVYYCARDDYYDSTRYFDLWGRGTLVTVSS", "VL": "B4 VL with T19S, I20F, V29I, G31A, K44R, E52D, S54G, V99Q, G103T, L107V"}},
  "note": "Positions count from the first letter of the chain named.",
  "data": [
    {"biological_target": "SARS-CoV-2 spike protein (SARS-CoV-2, UniProt P0DTC2 14-1208)", "assay": "not given", "units": {"Kd": "nM", "koff": "s⁻¹", "kon": "M⁻¹ s⁻¹"}, "values": [
      {"binder": "B1", "Kd": 7.93, "koff": 0.000291, "kon": 36700},
      {"binder": "B2", "Kd": 3.46, "koff": 0.000318, "kon": 91900},
      {"binder": "B3", "Kd": 37.5, "koff": 0.000692, "kon": 18500},
      {"binder": "B4", "Kd": 9.17, "koff": 0.000526, "kon": 57400},
      {"binder": "B5", "Kd": 0.429, "koff": "6.02e-05", "kon": 140000},
      {"binder": "B6", "Kd": 1.61, "koff": 0.000154, "kon": 95600},
      {"binder": "B7", "Kd": 0.866, "koff": "9.23e-05", "kon": 107000},
      {"binder": "B8", "Kd": 0.334, "koff": "8.87e-05", "kon": 266000},
      {"binder": "B9", "Kd": 3.92, "koff": 0.000377, "kon": 96300},
      {"binder": "B10", "Kd": 9.31, "koff": 0.00117, "kon": 125000},
      {"binder": "B11", "Kd": 6.97, "koff": "6.06e-05", "kon": 8700},
      {"binder": "B12", "Kd": 0.463, "koff": "3.67e-05", "kon": 79200},
      {"binder": "B13", "Kd": 0.133, "koff": "8.39e-05", "kon": 630000},
      {"binder": "B14", "Kd": 0.273, "koff": "2.96e-05", "kon": 109000},
      {"binder": "B15", "Kd": 0.317, "koff": "4.85e-05", "kon": 153000}
    ]},
    {"biological_target": "T1, SARS-CoV-2 spike protein (SARS-CoV-2, UniProt P0DTC2 14-1208)", "T1 construct": "also called SARS-CoV-2 S protein; antigen of interest", "assay": "HT-SPR, Carterra LSA; mAb coupled to chip, antigen injected; 1:1 fit", "units": {"Kd": "nM", "koff": "s⁻¹", "kon": "M⁻¹ s⁻¹"}, "values": [
      {"binder": "B16", "Kd": 0.43, "koff": 0.000114, "kon": 266000},
      {"binder": "B17", "Kd": 8.78, "koff": 0.000261, "kon": 29800}
    ]}
  ]
}
